The target in assay [1] is T1, human SEMA4D, full length, on CHO-K1 cells (CHO-K1 hSEMA4D) (human, UniProt Q92854 22-862).
T1 construct: whole, on cells; also called human SEMA4D recombinant cells
T1 sequence (looked up): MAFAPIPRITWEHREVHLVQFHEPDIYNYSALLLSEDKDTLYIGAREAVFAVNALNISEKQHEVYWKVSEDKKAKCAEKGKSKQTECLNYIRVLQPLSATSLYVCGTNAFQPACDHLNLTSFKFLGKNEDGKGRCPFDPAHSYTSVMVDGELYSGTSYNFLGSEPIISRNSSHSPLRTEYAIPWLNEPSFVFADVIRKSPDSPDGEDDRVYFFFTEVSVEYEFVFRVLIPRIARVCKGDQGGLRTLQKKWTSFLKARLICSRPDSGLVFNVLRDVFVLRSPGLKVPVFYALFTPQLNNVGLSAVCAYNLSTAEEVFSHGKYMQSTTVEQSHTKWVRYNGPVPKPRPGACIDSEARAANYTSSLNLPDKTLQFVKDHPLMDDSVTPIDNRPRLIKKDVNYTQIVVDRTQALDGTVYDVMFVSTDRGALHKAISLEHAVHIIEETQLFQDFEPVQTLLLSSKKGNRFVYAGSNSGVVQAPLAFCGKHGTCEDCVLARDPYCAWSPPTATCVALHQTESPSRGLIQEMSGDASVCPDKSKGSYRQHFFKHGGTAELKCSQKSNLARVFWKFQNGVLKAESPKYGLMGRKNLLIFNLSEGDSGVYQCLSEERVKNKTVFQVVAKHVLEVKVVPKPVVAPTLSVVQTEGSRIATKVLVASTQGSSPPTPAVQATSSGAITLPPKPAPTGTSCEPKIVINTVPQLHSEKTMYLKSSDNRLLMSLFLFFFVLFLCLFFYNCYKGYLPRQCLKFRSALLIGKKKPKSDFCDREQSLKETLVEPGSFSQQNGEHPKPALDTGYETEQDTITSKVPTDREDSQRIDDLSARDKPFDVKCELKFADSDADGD
In words: FACS, CHO-K1 hSEMA4D cells; Ab 13.3 nM. On the procedure: (§1) The medium was aspirated, the cells were washed once with PBS buffer (purchased from Invitrogen), and then treated with cell dissociation fluid (TrypLE™ Express Enzyme, purchased from Life technology), and the cells were collected. After the cells counted, the cells were washed once with PBS phosphate buffer, and diluted to 3×10⁶ cells per milliliter, and added to the 96-well FACS reaction plate as 100 μL per well. 2% (w/w) fetal calf serum was added to PBS phosphate buffer as FACS buffer, with which the cells were washed once by centrifugation at 2000 rpm 4° C. 100 μL of diluted and purified leading antibodies was added to each well and the plate was incubated for 1 hour on ice. […] Cells were washed 2 times by centrifugation with FACS buffer. The cells were suspended with 200 μL of FACS buffer, and FACS (FACS Verse, purchased from BD) was used to detect and analyze the results.
On the technique in general: Flow cytometry measures light scatter and fluorescence of single cells or particles in a stream.

Assay [2] concerns the target T2, monkey SEMA4D, full length, on CHO-K1 cells (CHO-K1 cSEMA4D) (monkey).
T2 construct: whole, on cells; also called monkey SEMA4D recombinant cells
In words: FACS, CHO-K1 cSEMA4D cells; Ab 13.3 nM. On the procedure:
After the cells were counted, they were diluted with PBS to 2×10⁶ cells per milliliter. After washing, 100 μL of diluted and purified leading antibodies was added to each well and the plate was incubated for 1 hour on ice. […] Cells were washed 2 times by centrifugation with FACS buffer. The cells were suspended with 200 μL of FACS buffer, FACS (FACS Verse, purchased from BD) was used to detect and analyze the results.

Assay [3] addresses T1, human SEMA4D, full length, on CHO-K1 …. In words: FACS, CHO-K1 hSEMA4D cells; Ab 0.000853 nM. On the procedure:
as §1

Assay [4] has as its target T3, hSEMA4D ECD-His (His-tagged human SEMA4D protein extracellular domain, Met22-Arg734) (human, UniProt Q92854 22-734).
T3 construct: Expressed in CHO-S cells, purified on Ni column; also called protein immunogen; immunogen A; not shown: His tag of the pCP vector
T3 sequence: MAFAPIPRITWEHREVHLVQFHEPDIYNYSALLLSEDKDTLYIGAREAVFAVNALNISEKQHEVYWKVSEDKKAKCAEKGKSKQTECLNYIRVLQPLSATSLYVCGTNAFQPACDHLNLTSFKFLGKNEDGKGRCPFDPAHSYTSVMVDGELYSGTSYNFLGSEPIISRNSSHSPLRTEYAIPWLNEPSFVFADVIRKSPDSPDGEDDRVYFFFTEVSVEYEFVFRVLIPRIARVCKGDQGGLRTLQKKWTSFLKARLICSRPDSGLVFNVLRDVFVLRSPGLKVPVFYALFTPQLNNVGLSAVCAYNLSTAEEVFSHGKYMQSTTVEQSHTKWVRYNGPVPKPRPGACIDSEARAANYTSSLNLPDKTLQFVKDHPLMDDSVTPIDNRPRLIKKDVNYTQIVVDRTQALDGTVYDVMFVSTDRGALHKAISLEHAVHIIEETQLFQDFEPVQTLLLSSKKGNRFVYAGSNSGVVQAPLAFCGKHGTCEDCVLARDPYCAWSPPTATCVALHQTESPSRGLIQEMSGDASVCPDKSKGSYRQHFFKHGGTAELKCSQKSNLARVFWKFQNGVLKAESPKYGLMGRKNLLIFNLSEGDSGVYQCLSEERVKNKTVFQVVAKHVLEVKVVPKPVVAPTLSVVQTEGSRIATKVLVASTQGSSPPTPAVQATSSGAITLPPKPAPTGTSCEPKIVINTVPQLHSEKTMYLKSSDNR
Kind of assay: ELISA, coated hSEMA4D ECD-His; Ab 0.0107 nM. On the procedure:
First, hSEMA4D ECD-His was diluted with PBS to a final concentration of 1.0 μg/mL, and then was added to a 96-well ELISA plate, 100 μL per well, sealed with plastic film and incubated overnight at 4° C. On the next day, the plate was washed with a plate washing solution, that is, PBS buffer containing 0.05% (v/v) Tween20, for 4 times, and added with blocking solution, that is, PBS buffer containing 0.05% (v/v) Tween20 and 2% (w/w) BSA, blocked at 37° C. for 1 hour. The blocking solution was poured out and the plate was washed 4 times with the plate washing solution. 100 μL of the purified leading antibodies obtained in Examples 1 and 2 was added to each well. After incubation at 37° C. for 1 hour, the plate was washed 4 times with a plate washing solution. 100 μL of horseradish peroxidase (HRP) labeled secondary antibody (purchased from Sigma) was added at a dilution of 1:10000 to each well, and the plate was incubated at 37° C. for 1 hour, and washed 4 times with a plate washing solution. 100 μL TMB substrate was added to each well, and the plate was incubated at room temperature for 5 minutes, and added with 100 μL stop solution (1.0N HCl) to each well. A microplate reader (SpectraMax M5e, purchased from Molecular Device) was used to read the A450 nm value. […] Wherein, the data in the table was the OD450 nm value.

Numbering of substitutions follows the chain as printed.

B1: 37C4F7 (antibody, V domains shown)
VH: EFQLQQSGPEVVKPGASVKISCKASGYSFTDYNMNWMKQSKGKSLEWIGVINPNYGTTTYNQNFKGKATLTVDQSSSTAYMQLNSLTSEDSAVYYCARDMYYVYAYYTMDYWGQGTSVTVSS
VL: DVVMTQTPLSLPVSLGDQASISCRSSQSLVHSNGHTYLHWYLQRPGQSPTLLIYKVSNRFSGVPDRFSGSGSGTDFTLKISRVEAEDLGVYFCSQGTHVPWTFGGGTKLEIK
notes: Mouse monoclonal antibody purified from hybridoma supernatant on protein A
With B1, the MFI in assay [1] amounted to 4290; in assay [2] it was 2790; in assay [3] it was 36.9. This molecule came in with an OD450 nm in assay [4] of 0.0864.

B2: 38H2E3 (antibody, V domains shown)
VH: B1 VH with N52S, N54D, G66D, R98K, Q114H
VL: B1 VL with F67V, W101R
notes: as for B1
Regarding B2, the MFI in assay [1] worked out at 4630; in assay [2], 2800; in assay [3], 36.7. For the same molecule, the OD450 nm in assay [4] stood at 0.0878.

B3: 32C8F10 (antibody, V domains shown)
VH: EVQLQQSGAELVRPGASVKLSCTASGFNIKDEYIHWVKQRPEQGLEWIGWIDPANGHTEYASRFQAKATITADTSSNTAYLQLSSLTSEDTAVYYCTTGDYDGFAYWGQGTLVTVST
VL: QIVLTQSPAIMSASPGEKVTISCSARSSVSYMYWYQQKPGSSPKPWIYRTSNLASGVPARFSGSGSGTSYSLTISSMEAEDAATYYCQHYHTYPYTFGGGTKLEIK
notes: as for B1
Regarding B3, the MFI in assay [1] was 7830; in assay [2], 5590; in assay [3], 47.3. For the same molecule, in assay [4], the OD450 nm turned out to be 0.207.

B4: 31G10C5 (antibody, V domains shown)
VH: B3 VH with E32D, T58I, R63N, A105T
VL: B3 VL
notes: as for B1
B4: the MFI in assay [1] is 6180; in assay [2], 4580; in assay [3], 47. In assay [4], this molecule registered an OD450 nm of 0.197.

B5: 31C11G2 (antibody, V domains shown)
VH: B3 VH with A105V
VL: B3 VL with S22F
notes: as for B1
Regarding B5, the MFI in assay [1] worked out at 6670; in assay [2], 4390; in assay [3], 46.7. For the same molecule, the OD450 nm in assay [4] amounted to 0.337.

B6: 37F11F9 (antibody, V domains shown)
VH: EVQLQQSGPVLVKPGASVKMSCKASGYTFTDYYMNWVKQSHGKSLEWIGLINPYSGGSTFNQKFKAKATLTVDKSSSSAYMDLNSLTSEDSAVYYCARVGDGYYGVTHGMDYWGQGTSVTVSS
VL: DIVMTPSQKFMSTTVGDRVSITCKASQNVGTAVAWYQQKPGQSPTILIYSASNRYTGVPDRFTGSGSGTDFTLTISNMKSEDLADYFCQQYYIYPFTFAAGTKLELK
notes: as for B1
Consider B6, for which the MFI in assay [1] is 3960; in assay [2], 2480; in assay [3], 38.2. In assay [4], this molecule returned an OD450 nm of 0.131.

B7: 42B7G2 (antibody, V domains shown)
VH: QVQLQQSGAELARPGASVKLSCKASGYTFTDYGISWVKQRTGQGLEWIGEIYLRNDNSYYNEKFKGKATLTADKSSNTAYMELRSLTSEDSAVYFCARWGDHGNNYEDAMDYWGQGTSVTVSS
VL: DIVLTQSPASLAMSLGKRATISCRASESVSIIGSNLIHWYQQKPGQPPKLLIYHASNLETGVPARFSGSGSRTDFTLTIDPVEEDDVAIYYCLQSRKVPYTFGGGTKLEIK
notes: as for B1
Consider B7, for which the MFI in assay [1] came out at 3950; in assay [2], 2590; in assay [3], 41.2. This molecule displayed an OD450 nm in assay [4] of 0.25.

The record behind these values is US20220073608A1 (JIANGSU HUAIYU PHARMACEUTICAL, published 2022).
